From patent US20250320281A1

Assays:
Assay in all cases: cell-based or functional assay
[1] = molecular target: HIV-1 JRCSF envelope glycoprotein (Env) on pseudovirus (HIV-1) (UniProt P20871)
[2] = molecular target: HIV-1 Env of isolate VLGCB3 (subtype B pseudovirus) (HIV-1)
[3] = molecular target: HIV-1 Env of isolate MGRM-D-005 (pseudovirus) (HIV-1)
[4] = molecular target: HIV-1 Env of isolate TRJ04551.58 (subtype B pseudovirus) (HIV-1)
[5] = molecular target: HIV-1 Env of isolate MGRM-D-022 (pseudovirus) (HIV-1)
[6] = molecular target: HIV-1 Env of isolate SF162 (subtype B pseudovirus) (HIV-1) (UniProt P19550)
[7] = molecular target: HIV-1 Env of isolate MGRM-D-003 (pseudovirus) (HIV-1)
[8] = molecular target: HIV-1 Env of isolate THR0.18 (subtype B pseudovirus) (HIV-1)
[9] = molecular target: HIV-1 JRFL Env (pseudovirus, clade B) (HIV-1)
[10] = molecular target: HIV-1 Env of isolate MGRM-C-027 (HIV-1)
[11] = molecular target: HIV-1 Env of isolate MGRM-AG-009 (HIV-1)
[12] = molecular target: HIV-1 Env of isolate MGRM-D-020 (pseudovirus) (HIV-1)
[13] = molecular target: HIV-1 92BR020 Env (pseudovirus, clade B) (HIV-1)
[14] = molecular target: HIV-1 Env of isolate 98CN009 (pseudovirus) (HIV-1)
[15] = molecular target: HIV-1 Env of isolate APV_6 (subtype B pseudovirus) (HIV-1)
[16] = molecular target: HIV-1 Env of isolate MGRM-Chronic-B-004 (subtype B pseudovirus) (HIV-1)
[17] = molecular target: HIV-1 Env of isolate MGRM-D-002 (pseudovirus) (HIV-1)
[18] = molecular target: aMLV envelope (pseudovirus, negative control)
[19] = molecular target: HIV-1 Env of isolate SC422661.8 (subtype B pseudovirus) (HIV-1)
[20] = molecular target: HIV-1 Env of isolate 97ZA012 (subtype C) (HIV-1)
[21] = molecular target: HIV-1 Env of isolate 92WR020 (HIV-1)
[22] = molecular target: HIV-1 Env of isolate VLGCB3 (subtype B) (HIV-1)
[23] = molecular target: HIV-1 Env of isolate 94UG103 (HIV-1)
[24] = molecular target: HIV-1 Env of isolate MGRM-AG-008 (subtype AG) (HIV-1)
[25] = molecular target: HIV-1 envelope glycoprotein (Env) of isolate MGRM-C-013 (HIV-1)
[26] = molecular target: HIV-1 Env of isolate MG RM-D-008 (HIV-1)
[27] = molecular target: HIV-1 Env of isolate MGRM-AE-001 (subtype AE) (HIV-1)
[28] = molecular target: HIV-1 Env of isolate MGRM-AG-001 (subtype AG) (HIV-1)
[29] = molecular target: HIV-1 Env of isolate 98CN009 (HIV-1)
[30] = molecular target: HIV-1 envelope glycoprotein (Env) of isolate MGRM-C-008 (HIV-1)
[31] = molecular target: HIV-1 Env of isolate MG RM-D-016 (HIV-1)
[32] = molecular target: HIV-1 Env of isolate MG RM-D-005 (HIV-1)
[33] = molecular target: HIV-1 Env of isolate MGRM-AE-007 (subtype AE) (HIV-1)
[34] = molecular target: HIV-1 Env of isolate 92WR026 (HIV-1)
[35] = molecular target: HIV-1 envelope glycoprotein (Env) of isolate MGRM-C-020 (HIV-1)

5329_C19 (PGT-136) (antibody), sequence (VH): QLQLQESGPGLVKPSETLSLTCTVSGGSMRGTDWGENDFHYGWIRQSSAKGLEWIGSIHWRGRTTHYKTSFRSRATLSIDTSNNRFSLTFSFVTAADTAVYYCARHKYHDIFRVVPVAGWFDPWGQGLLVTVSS
5329_C19 (PGT-136) (antibody), sequence (VL): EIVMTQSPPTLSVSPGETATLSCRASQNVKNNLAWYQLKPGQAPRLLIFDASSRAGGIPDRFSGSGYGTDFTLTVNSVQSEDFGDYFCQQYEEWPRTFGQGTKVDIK
5345_I01 (PGT-137) (antibody), sequence (VH): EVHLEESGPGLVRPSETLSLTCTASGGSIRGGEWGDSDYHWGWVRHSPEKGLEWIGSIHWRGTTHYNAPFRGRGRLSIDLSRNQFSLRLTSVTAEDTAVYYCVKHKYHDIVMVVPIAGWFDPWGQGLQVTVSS
5345_I01 (PGT-137) (antibody), sequence (VL): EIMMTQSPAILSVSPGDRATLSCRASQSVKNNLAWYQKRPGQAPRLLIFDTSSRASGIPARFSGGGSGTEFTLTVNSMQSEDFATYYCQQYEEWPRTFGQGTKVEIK

Substance | IC50 neutralization [9] | IC50 neutralization [13] | neutralization IC50 (pseudovirus) [18] | IC50 neutralization [20] | IC50 [21] | IC50 neutralization [22] | IC50 [23] | IC50 (µg/mL), pseudovirus neutralization [24] | IC50 (µg/mL), pseudovirus neutralization [25] | IC50 (µg/mL), pseudovirus neutralization [26] | IC50 (µg/mL), pseudovirus neutralization [27] | IC50 (µg/mL), pseudovirus neutralization [28] | IC50 (µg/mL), pseudovirus neutralization [29] | IC50 (µg/mL), pseudovirus neutralization [30] | IC50 (µg/mL), pseudovirus neutralization [31] | IC50 (µg/mL), pseudovirus neutralization [32] | IC50 (µg/mL), pseudovirus neutralization [33] | IC50 [34] | IC50 (µg/mL), pseudovirus neutralization [35] | also measured
4858_P08 (PGT-123) (antibody) | 0.0283 µg/mL | 0.013 µg/mL | > 10 µg/mL |  |  |  |  |  |  |  |  |  |  |  |  |  |  |  |  | neutralization IC50 [1]: 0.0423 µg/mL; neutralization IC80 [1]: 0.143 µg/mL; neutralization IC90 [1]: 0.289 µg/mL; neutralization IC95 [1]: 0.547 µg/mL; IC50 (µg/mL), pseudovirus neutralization [2]: 0.004 µg/mL; IC50, pseudovirus neutralization [3]: > 50 µg/mL; IC50 (µg/mL), pseudovirus neutralization [4]: 16.9 µg/mL; IC50, pseudovirus neutralization [5]: > 50 µg/mL; IC50 (µg/mL), pseudovirus neutralization [6]: 0.005 µg/mL; IC50, pseudovirus neutralization [7]: 3.74 µg/mL; IC50 (µg/mL), pseudovirus neutralization [8]: > 50 µg/mL; neutralization IC50 [10]: 0.02 µg/mL; IC50 [11]: 0.073 µg/mL; IC50, pseudovirus neutralization [12]: 0.018 µg/mL; IC50, pseudovirus neutralization [14]: 0.007 µg/mL; IC50 (µg/mL), pseudovirus neutralization [15]: 0.023 µg/mL; IC50 (µg/mL), pseudovirus neutralization [16]: 0.008 µg/mL; IC50, pseudovirus neutralization [17]: 0.012 µg/mL; IC50 (µg/mL), pseudovirus neutralization [19]: 0.039 µg/mL
5114_A19 (PGT-128) (antibody) |  |  |  | 0.019 µg/mL | 0.005 µg/mL | 0.012 µg/mL | 0.011 µg/mL | 0.668 µg/mL | > 50 µg/mL | 0.033 µg/mL | 0.069 µg/mL | 4.73 µg/mL | 0.025 µg/mL | 0.373 µg/mL | > 50 µg/mL | 0.051 µg/mL | > 50 µg/mL | 0.01 µg/mL | 5.85 µg/mL | 
5136_H01 (PGT-131) (antibody) |  |  |  | 1.81 µg/mL | 0.168 µg/mL | > 50 µg/mL | 1.1 µg/mL | > 50 µg/mL | > 50 µg/mL | > 50 µg/mL | 4.8 µg/mL | > 50 µg/mL | 4.05 µg/mL | > 50 µg/mL | > 50 µg/mL | > 50 µg/mL | 0.026 µg/mL | 0.041 µg/mL | > 50 µg/mL | 
5141_B17 (PGT-126) (antibody) | 0.014 µg/mL | 0.0163 µg/mL | > 10 µg/mL |  |  |  |  |  |  |  |  |  |  |  |  |  |  |  |  | IC80 (pseudovirus neutralization) [1]: 0.018 µg/mL; IC90 (pseudovirus neutralization) [1]: 0.0339 µg/mL; IC95 (pseudovirus neutralization) [1]: 0.0608 µg/mL; IC50 (µg/mL), pseudovirus neutralization [2]: 0.007 µg/mL; IC50, pseudovirus neutralization [3]: 0.792 µg/mL; IC50 (µg/mL), pseudovirus neutralization [4]: 0.025 µg/mL; IC50, pseudovirus neutralization [5]: > 50 µg/mL; IC50 (µg/mL), pseudovirus neutralization [6]: 0.003 µg/mL; IC50, pseudovirus neutralization [7]: 0.021 µg/mL; IC50 (µg/mL), pseudovirus neutralization [8]: > 50 µg/mL; neutralization IC50 [10]: 15.6 µg/mL; IC50 [11]: 0.03 µg/mL; IC50, pseudovirus neutralization [12]: 0.023 µg/mL; IC50, pseudovirus neutralization [14]: 0.019 µg/mL; IC50 (µg/mL), pseudovirus neutralization [15]: 0.007 µg/mL; IC50 (µg/mL), pseudovirus neutralization [16]: 0.01 µg/mL; IC50, pseudovirus neutralization [17]: 0.039 µg/mL; IC50 (µg/mL), pseudovirus neutralization [19]: 0.119 µg/mL
5147_N06 (PGT-130) (antibody) | 0.0346 µg/mL | 1.12 µg/mL | > 10 µg/mL | 1.32 µg/mL | 0.039 µg/mL | 4.6 µg/mL | 1.4 µg/mL | > 50 µg/mL | > 50 µg/mL | > 50 µg/mL | 1 µg/mL | > 50 µg/mL | 0.136 µg/mL | 7.28 µg/mL | > 50 µg/mL | > 50 µg/mL | 0.083 µg/mL | 0.037 µg/mL | > 50 µg/mL | Neutralization by PGT-130, IC50 [18]: > 10 µg/mL; Neutralization by PGT-130, IC80 [18]: > 10 µg/mL; Neutralization by PGT-130, IC90 [18]: > 10 µg/mL; Neutralization by PGT-130, IC95 [18]: > 10 µg/mL
5329_C19 (PGT-136) (antibody) | > 10 µg/mL | > 10 µg/mL |  | > 50 µg/mL | 2.33 µg/mL | > 50 µg/mL | > 50 µg/mL | > 50 µg/mL | > 50 µg/mL | > 50 µg/mL | > 50 µg/mL | > 50 µg/mL | 0.428 µg/mL | > 50 µg/mL | > 50 µg/mL | > 50 µg/mL | > 50 µg/mL | > 50 µg/mL | > 50 µg/mL | 
5343_B08 (PGT-135) (antibody) | > 10 µg/mL | 0.104 µg/mL |  | > 50 µg/mL | 0.067 µg/mL | 0.142 µg/mL | > 50 µg/mL | > 50 µg/mL | > 50 µg/mL | > 50 µg/mL | > 50 µg/mL | > 50 µg/mL | 0.071 µg/mL | > 50 µg/mL | > 50 µg/mL | > 50 µg/mL | > 50 µg/mL | 0.068 µg/mL | > 50 µg/mL | 
5345_I01 (PGT-137) (antibody) |  |  |  | > 50 µg/mL | 0.005 µg/mL | 3.36 µg/mL | > 50 µg/mL | > 50 µg/mL | > 50 µg/mL | > 50 µg/mL | > 50 µg/mL | > 50 µg/mL | 5.06 µg/mL | > 50 µg/mL | > 50 µg/mL | > 50 µg/mL | > 50 µg/mL | 0.092 µg/mL | > 50 µg/mL | 
